Reference: the nanobody polyreactivity screen of Harvey et al. (2022)

Assay: yeast display, Sf9 membrane polyspecificity reagent, FACS + sequencing; frameworks hold sequencing errors
Summary of the method: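 Genes from sorted yeast were amplified by colony PCR, read by MiSeq 2 × 250 sequencing and filtered on CDR length. These cells carried a synthetic nanobody library in Saccharomyces cerevisiae BJ5465 and were sorted by FACS into low and high (top ~1%) gates on anti-HA and streptavidin fluorescence. Polyreactivity is labelled according to the gate of origin.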

QVQLVESGGGLVQAGGSLRLSCAASGSIFRGYAMGWYRQAPGKERELVASIRWRGGRTNYADSVKGRFTISRDNAKNTVYLQRNSLKPEDTAVYYCNADQQTIRSAKNDYWGQGTQVTVSS
polyreactivity (PSR sort gate): low polyreactivity

QVQLVESGGGLVQAGGSLRLSCAASGGTFPYNAMGWYRQAPGKEREFVAAISYTGGSTYYADSVKGRFTISRDNAKNTVYLQMNSLKPEDTAVYYCATEHTRTASGYWGQGTQVTVSS
polyreactivity (PSR sort gate): low polyreactivity

QVQLVESGGGLVQAGGSLRLSCAASGLTFIYYAMGWYRQAPGKERELVAAISVSGGSTYYADSVKGRFTISRDNAKNTVYLQMNSLKPEDTAVYYCAADWFVHKPRYQYSFDYWGQGTQVTVSS
polyreactivity (PSR sort gate): low polyreactivity

QVQLVESGGGLVQAGGSLRLSCAASGSIFAYYAMGWYRQAPGKERELVAAISRGGGSTYYADSVKGRFTISRDNAKNTVYLQMNSLKPEDTAVYYCAAQYVYWTNRVRQHVTLNDYWGQGTQVTVSS
polyreactivity (PSR sort gate): high polyreactivity

QVQLVESGGGLVQAGGSLRLSCAASGSIFPSYDMGWYRQAPGKERELVAAIRSGGNTTYADSVKGRFTISRDNAKNTVYLQMNSLKPEDTAVYYCAKGYYYYSTVQFYYWGQGTQVTVSS
polyreactivity (PSR sort gate): low polyreactivity

QVQLVESGVGLVQAGGSLRLSCAASGIIFPGYVMGWYRQAPGKERELVAAISSGGRTYYADSVKGRFTISRDNAKNTVSLQMNSLKPEDTAVYYCAAGGRARTYYYWGQGTQVTVSS
polyreactivity (PSR sort gate): high polyreactivity

QFQLVDSGGGLVQAGGSLRLSCAASGRTFFFYAMGWYRQAPGKERELVASITWSGGTRTYYADSVKGRFTISRDNAKNTVYLQMNSLKREDTAVYYCADTYSSYWFNRYGGKYYYWGQGTQVTVSS
polyreactivity (PSR sort gate): high polyreactivity

QVQLVDSGGGLVQAGGSLRLSCAASGSIITYYAMGWYRQAPGKERELVAGISRRGASTYYADSVKGRFTISRDNAKNTVYLQMNSLNPEDTEVYYCAAVPYYYYGFDYWGQGTQVTVSS
polyreactivity (PSR sort gate): high polyreactivity

QVQLQESGGGLVQAGGSLRLSCAASGSIFVSVTMGWYRPAPGKERELVASIGRGSTTNHADSVKGRFTISRDNAKNIVYLLMNSLKPEDTAVYYCAALESYGKYHGYWGQGTQVTVSS
polyreactivity (PSR sort gate): low polyreactivity

QVQLVESGGGLVQAGGSLRLSCAASGIIFPRYAMGWYIQAPGKERELVAAITKRGGSTYYADSVKGRFTISRDNANNTVYLQMNSLKPEDTAVYYCARVWSRRYGGWYRNYDYWGQGTKVTVSS
polyreactivity (PSR sort gate): high polyreactivity

QVQLVESGGGLVQAGGSLRLSCAASGRTFYGYGMGWYRQAPGKERELVAGISGRGTRTYYADSVKGRFTISRDNAKNTVYLQMNSLKPEDTAVYYCNAVSIGYYSQSLGLDYWGQGTQVTVSS
polyreactivity (PSR sort gate): high polyreactivity

QVQLVESGGGLVQAGGSLRLSCAASGSTFTAYVMGWYRQAPGKERELVAAISSSGGRTYYADSVKGRFTISRDNAKNTVYLQMNSLKPEDTAVYYCAARSGPLAYDYWGQGTQVTVSS
polyreactivity (PSR sort gate): high polyreactivity

QVQIVESGGGLVQAGGSLRLSCAASGFTFRYYAMGWYRQAPGQERELVAAISKSGGSTYYADSVKGRFTISRDNAKNTVDLQMNSLKPEDTAVYYCAADYAHIGYDYDYWGQGTQVTVSS
polyreactivity (PSR sort gate): high polyreactivity

QVQLVESGGGLVQAGGSLRLSCAASGRTFGLYTMGWYRQAPGKERELVAAISRSGGSTYYADSVKGRFTISRDNAKNTVYLQMNSLKPEDTAVYYCATRRSFSDRYDYWGQGTQVTVSS
polyreactivity (PSR sort gate): high polyreactivity

QVQLVESGGGLVQAGGSLRLSCAASGGTILYYAMGWYRQAPGKEMELVAAISRGGSTHYADSVKWRFTISRDNAKNTVYLQMNRLKPEDTAVFYCAVDGGEFSSYGYWGHGTQVTVSS
polyreactivity (PSR sort gate): low polyreactivity

QVQLVESRGGLVQAGGSHRLSCAASGSIIYGNTMGWYRQAPGKERELVAAIRRGGSTNYADSVKGRFTISRDNAKNTVYLQMNSMKPEDTAVYYCAKGHPSDFGYWGQGTQVNVSS
polyreactivity (PSR sort gate): high polyreactivity

QVQLVESGGGLVQAGGSLRLSCAASGSIFVTNAMGWYRPAPGKERELVAAIRWSGDSTYYADSVKGRFTISRDNAKNTVFLQMNSLKPEDTAVYYCAAESFRYIRLNYKYGDYYWGQGTQVTVSS
polyreactivity (PSR sort gate): high polyreactivity

QVQLVESGGGLVQAGGSLRLSCAASGRSFYVYAMGWYRQAPGMERELVATITRGGRTYYADSVKGRFTISRDNAKNTVYLQMNSLKPEDTAVSYCNDEDGSRRYRYEYWGHGTQVTVSS
polyreactivity (PSR sort gate): high polyreactivity

QVQLVESGGGLVQAGGSLRLSCAASGRIFRYNAMGWYRQAPGKERELVAAISWSGGSTYADSVKGRFTISRDNAKNTVYLQMNSLKPEDTAVYYCAADSSDLYVWGYDHWGQGTQVTVSS
polyreactivity (PSR sort gate): low polyreactivity

QVQLEESGGGLVQAGGSLRLSCAASGSTFQENAMGWYRQAPGKEREFVAAISGSGGSTYYADSVKGRFTISRDNAKNTVYLQMNSLKPEDTAVYYCAARHYFRSRRRYDYWGQGTQVTVSS
polyreactivity (PSR sort gate): low polyreactivity

QVQLVESGGGLVQAGGSLRLSCAASGSIFYLYTMGWNRQAPGKERELVAAITAISGSTYYADSVKGRFTISRDNAKNTVYLQINSLKPEDTAVYYCAAKYYRHRWQLYNYWGQGTQVTVSS
polyreactivity (PSR sort gate): high polyreactivity

QVQLVASGGGIDQAGGSHRLSCAASGSIFPAYTMGWYRPAPGKERELVAAITRRGGSTYYADSVKGRFTISRDNAKNTVYLQMNSLKPEDSAVYYCAADGFNSDDTPSWYWGEYWGPGTQVTVSS
polyreactivity (PSR sort gate): low polyreactivity

QVQLVESGGGLVQAGGSLRLSCAASGRTFRFYAMGCYRQAPGKERELVAAINYGGGNTYYADSVKGRFTISRDNAKNTVYLQMNILKPEDTAVYYCAAQYYYRARWFPYDYWGQGTQVTVSS
polyreactivity (PSR sort gate): high polyreactivity

QVQLVESGGGLVQAGGSLRLSCAAYGSIFAHYAMGWYRQAPGKERELVARISWSGGSTYYADSVKGRFSISLDNAKNTVYLQMNSLKPEDTAVYYCSADLTSKSSPQGYRYDYWGQGTQVTVSS
polyreactivity (PSR sort gate): low polyreactivity

QVQIVESGGGLVQAGGSLRLSCAASGRTFNRNAMGWYRQAPGKERELVAAISRGGGGTFYADSVKGRFTISRDNAKNTVYLQMNSLKPEDTAVYYCAKTLRGWHTIITDYDYWGQGTQVTVSS
polyreactivity (PSR sort gate): low polyreactivity

QVQLVESGGGLVQAGGSLRLSCAASGNTFDPNAMGWYRQAPGKEREFVAAISTIGSSTYYADSVKGRFTISRDNAKNTVYLQMNSLKPEDTAVYYSNADYFQDRLDYWGQGTQVTVSS
polyreactivity (PSR sort gate): low polyreactivity

QVQLVESGGGLVQAGGSLRLSCAASGIIFGKYAMGWYRQAPGKERELVASITVDGGTTYYADSVKGRFTISRDNAKNTVYLQMNSLKPEDTAVYYCATGVFAEQWFDYWPYDYWGQGTQVTVSS
polyreactivity (PSR sort gate): high polyreactivity

QVQLVESWGGLVQAGGSLRLSCAASGGTFSANAMGWYRQAPGKERELVAAISTSGGSTHYADSVKGRFTISRDSAKNTVYLQMNSLNPEDTAVYYCAARLYSYRRQYGYWGHGTQVTVSS
polyreactivity (PSR sort gate): high polyreactivity

QVQLVESGGGLVQAGGSLRLSCAASGSTFHPYAMGWYRQAPGKERELVAAITWRVGSTYYADSVKGRFTISRDNAKNTVYLLINCLKPEDTAVYYCAVSYLSTLGRSRYDYWGQGTQVSVSS
polyreactivity (PSR sort gate): low polyreactivity

QVQLVESGGGLVQAGGSLRLSCAASGSTFFGNAMGWYRQAPGKERELVAAITSGGSTNYADSVKGRFTFSRDNAKNTVSLQMNSLKPEDTAVYDCAKPSRWGWTGFYAYDYWGQGTQVTVSS
polyreactivity (PSR sort gate): low polyreactivity

QVQLVESGGGLVQAGGSLRLSCAASGYTFPRYAMGWYRQAPGKERELVAAISRRGGSTYYADSVKGRFTISRDNAKNTVYLQMNSLKPEDTAVYYCAAATRQGYYSGSTRYDYWGQGTQVTVSS
polyreactivity (PSR sort gate): high polyreactivity

QVQLVESGGGLVQAGRSLRLSCAASGYTFYVYAMGWYRQAPGKERELVASISSGGITYYADSVKGRFTISRDNAKNTVYLQMNILKPEDTAVYYCAADWQWTYDYWGQGTQVTVSS
polyreactivity (PSR sort gate): low polyreactivity

QVQLVESGGGLVQAGGSLRLSCAASGRIFTANAMGWYRQAPGKERELVAAITTSDGTYYADSVKGRFTISRDNAKNTVYLQMNSLKPEDTAVYYCATDTATYPTAMDYWGQGTQVTVSS
polyreactivity (PSR sort gate): low polyreactivity

QVQLVESGGGLVQAGGSLRLSCAASGRTIDRMLMGSYRQAPGKERELVAAITSGGRTNYADSVKGRFTISRDNAKNTVYLKMNSLKAEDTAFYYCARHGGRRPVSSKGNTYDYWGQGTQVTVLS
polyreactivity (PSR sort gate): low polyreactivity

QVQLVESGGGLVQAGGSLRLSCAASGITFWDYAMGWYRQAPGKERELVAGISTRGGSTYYADSVKGRFTISRDNEKNTVYLQMNSLKPEDTAVYYCATDDPLSQINEQGMDYWGQGTQVTVSS
polyreactivity (PSR sort gate): low polyreactivity

QVQLVESGGGLVQAGGSLRLSCAASGNTFHSNAMGWYRQAPGKERELVAAITPSDGDTYYADSVKGRFTISRDIAKNTVYLQMNSLKPEDTAVYYCAADPEPSYRFDYWGQGTQVTVSS
polyreactivity (PSR sort gate): low polyreactivity

HVQLQESGGGLVQAGGSMRLTCAASGQKSSYYSMGWNRQAPGKEREFVATIAVGGTTNYADSVKGRFTISRDNAKNTVYLQMNSLKPEDTAVCFCAANSTQYTWFDYWGQGTQVPVSS
polyreactivity (PSR sort gate): low polyreactivity

QVQLVESGGGLVQAGGSLRLSSAASGRIFRVNAMGLYTQAPGKERELVAAISRRGGSTYYADSVKGRFTISRDNAKNTVYLQMNTLKPEDTAVYYCAKKSYSYGYNSYYYWGQGTQVTVSS
polyreactivity (PSR sort gate): high polyreactivity

QVQLVESGGGLVQAGGSLRLSCAASGRTFRDNAMGWYRQAPGKERELVAVITVDSSSTYYADSVKGRFTISRDNAKNTVYLQMNSLKPEDTAVYYCAAELYYFWFDYWGQGTQVTVSS
polyreactivity (PSR sort gate): low polyreactivity

QVQLVDSGGGLVQAGGSLRLSCAASGFTFAYYALGWYRPAPGKEREFVAAITSGGRTNYADSVKGRFTISRDNAKNTVYLQMNSLKPEDTAVYYCAKYRRGGSRHYSVFNHDYWGQGTQVTVSS
polyreactivity (PSR sort gate): high polyreactivity

QVQLVESGGGLVQAGGSLRLICAASGITFRLNVMGWDRQAPGKERELVARISRAGSTKYADSVKGRFTISRDNAKNTVYLQMNCLKPEDTAVYYCNRYYRRATKVGYWGQGTQVTVSS
polyreactivity (PSR sort gate): high polyreactivity

QVQLVESGGGLVQAGGSLRLSCAASGSTLRTNAMGWYRQAPGKERELVAAISSSAGSTYYADSVKGRFTISRDNAKNTVYLQMNSLKQEDTAVYYCAKQPGSAYGYWGQGTQVTVSS
polyreactivity (PSR sort gate): high polyreactivity

QVQLVESGGGLVQAGGSLRLSCAASGIIFAGNAMGWYRQAPGKERELVAAISSGTTTNYADSVKGRFTISRDNAKNTVYLQMNRLKPEDTAVYYCAADDFPYKSDYWGQGTHVTVSS
polyreactivity (PSR sort gate): low polyreactivity
